Measured values published in US20240109957A1 (ANNEXON, published 2024).

What was measured:
[1] = biological target: T1, human complement C1q (Homo sapiens, UniProt P02745 23-245; P02746 28-253; P02747 29-245); test: cell-based or functional assay
[2] = biological target: T1, human complement C1q; test: Not stated; affinity given in descriptive text

T1 sequence (P02745 23-245 limits assumed, chain 1 of 3): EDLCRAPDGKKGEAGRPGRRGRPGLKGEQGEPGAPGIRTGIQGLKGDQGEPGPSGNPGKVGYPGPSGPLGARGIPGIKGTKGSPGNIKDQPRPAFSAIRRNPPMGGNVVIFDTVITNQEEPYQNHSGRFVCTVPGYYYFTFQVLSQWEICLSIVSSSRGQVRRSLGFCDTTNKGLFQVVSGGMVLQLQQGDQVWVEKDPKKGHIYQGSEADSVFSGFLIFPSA
T1 sequence (P02746 28-253 limits assumed, chain 2 of 3): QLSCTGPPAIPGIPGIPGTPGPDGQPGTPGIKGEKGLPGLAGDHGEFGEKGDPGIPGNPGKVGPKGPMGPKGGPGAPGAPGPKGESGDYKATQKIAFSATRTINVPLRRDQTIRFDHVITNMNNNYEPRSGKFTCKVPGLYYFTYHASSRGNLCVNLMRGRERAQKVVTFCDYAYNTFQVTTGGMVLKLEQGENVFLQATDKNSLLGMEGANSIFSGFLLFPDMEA
T1 sequence (P02747 29-245 limits assumed, chain 3 of 3): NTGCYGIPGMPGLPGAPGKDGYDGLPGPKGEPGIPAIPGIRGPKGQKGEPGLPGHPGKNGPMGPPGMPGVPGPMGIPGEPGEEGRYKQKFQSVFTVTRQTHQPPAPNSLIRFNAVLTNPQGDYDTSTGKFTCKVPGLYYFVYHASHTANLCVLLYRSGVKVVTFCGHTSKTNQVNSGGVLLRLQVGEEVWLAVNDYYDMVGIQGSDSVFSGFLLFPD

B1: FabA (anti-C1q antibody Fab fragment) (Fab)
heavy: QVQLVQSGAELKKPGASVKVSCKSSGYHFTSYWMHWVKQAPGQGLEWIGVIHPNSGSINYNEKFESRVTITVDKSTSTAYMELSSLRSEDTAVYYCAGERDSTEVLPMDYWGQGTTVTVSSASTKGPSVFPLAPSSKSTSGGTAALGCLVKDYFPEPVTVSWNSGALTSGVHTFPAVLQSSGLYSLSSVVTVPSSSLGTQTYICNVNHKPSNTKVDKKVEPKSCDKTHT
light: DVQITQSPSSLSASLGERATINCRASKSINKYLAWYQQKPGKAPKLLIYSGSTLQSGIPARFSGSGSGTDFTLTISSLEPEDFAMYYCQQHNEYPLTFGQGTKLEIKRTVAAPSVFIFPPSDEQLKSGTASVVCLLNNFYPREAKVQWKVDNALQSGNSQESVTEQDSKDSTYSLSSTLTLSKADYEKHKVYACEVTHQGLSSPVTKSFNRGEC
notes: Heavy chain Fab fragment truncated after the first constant domain of IgG1; also called anti-C1q Fab; anti-C1q monovalent Fab
- IC50 for inhibition of complement deposition (C4 and C3d on human RBCs, flow cytometry) [1]: ~10 nM
- IC50 for inhibition of hemolysis (CAD-sensitised human RBCs, normal human serum, absorbance at 415 nM) [1]: ~10 nM
- Kd [2]: 0.01 nM
